Reference: US11278600B2, “Human alpha-galactosidase variants” (Codexis, Inc., priority 2014, dated 2022)
Positions count from the first letter of the chain named.

B1: 276 (protein)
chain: LDNGLARTPTMGWLHWERFMCNLDCQEEPDSCISEKLFMEMAERMVSEGWKDAGYEYLCIDDCWMAPQRDSEGRLQADPQRFPHGIRQLANYVHSKGLKLGIYADVGNKTCAGFPGSFGYYDIDAQTFADWGVDLLKFDGCYCDSLENLADGYKHMSLALNRTGRSIVYSCEWPLYMWPFQKPNYTEIRQYCNHWRNFADIDDSWASIKSILDWTSRNQERIVDVAGPGGWNDPDMLVIGNFGLSWDQQVTQMALWAIMAAPLFMSNDLRHISPQAKALLQDKDVIAINQDPLGKQGYQLRQGDNFEVWERPLSGDAWAVAMINRQEIGGPRSYTIPVASLGKGVACNPGCFITQLLPVKRKLGFYDWDSRLRSHINPTGTVLLQLENTMQMSLKDLL
modifications: Synthetic Polypeptide sequence of Variant No. 276 of mature Human GLA
B2: 265 (protein)
chain: LDNGLARTPTMGWLHWERFMCNLDCQEEPDSCISEKLFMEMAELMVSEGWKDAGYEYLCIDDCWMAPQRDSEGRLQADPQRFPHGIRQLANYVHSKGLKFGIYADVGNKTCAGFPGSFGYYDIDAQTFADWGVDLLKFDGCYCDSLENLADGYKHMSLALNRTGRSIVYSCEWPLYMWPFQKPNYTEIRQYCNHWRNFADIDDSWASIKSILDWTSFNQEKIVDVAGPGGWNDPDMLVIGNFGLSWNQQVTQMALWAIMAAPLFMSNDLRHISPQAKALLQDKDVIAINQDPLGKQGYQLRQGDNFEVWERPLSGLAWAVAMINRQEIGGPRSYTIAVASLGKGVACNPACFITQLLPVKRKLGFYEWTSRLKSHVNPTGTVLLQLENTMQMSLKDLL
modifications: Synthetic Polypeptide sequence of Variant No. 265 of mature Human GLA
B3: 271 (protein)
chain: B1 chain with E187G, R217F, D247N, D316L, D367E, D369T
modifications: Synthetic Polypeptide sequence of Variant No. 271 of mature Human GLA
B4: 270 (protein)
chain: B1 chain with C143Y, R217F, D247N, D316L, D367E, D369T
modifications: Synthetic Polypeptide sequence of Variant No. 270 of mature Human GLA
B5: 275 (protein)
chain: B1 chain with D316L, G350A, D367E, D369T
modifications: Synthetic Polypeptide sequence of Variant No. 275 of mature Human GLA
B6: 268 (protein)
chain: B2 chain with K221R
modifications: Synthetic Polypeptide sequence of Variant No. 268 of mature Human GLA
B7: 274 (protein)
chain: B1 chain with D247N, D316L, P337A, D367E, D369T
modifications: Synthetic Polypeptide sequence of Variant No. 274 of mature Human GLA
B8: 267 (protein)
chain: B2 chain with K221T, N247D, Q302K, K343D, F365L, V376I
modifications: Synthetic Polypeptide sequence of Variant No. 267 of mature Human GLA
B9: 272 (protein)
chain: B2 chain with L44R, F100L, K221R, K373R, V376I
modifications: Synthetic Polypeptide sequence of Variant No. 272 of mature Human GLA
B10: 269 (protein)
chain: B2 chain with L37I, F100L, N247D, M322I, V376I
modifications: Synthetic Polypeptide sequence of Variant No. 269 of mature Human GLA
B11: 273 (protein)
chain: B1 chain with R217F, D247N, D316L, P337A, G350A
modifications: Synthetic Polypeptide sequence of Variant No. 273 of mature Human GLA
B12: 266 (protein)
chain: B2 chain with K221T, M322I, K343E, F365L, V376I
modifications: Synthetic Polypeptide sequence of Variant No. 266 of mature Human GLA

Experiments:
Format in all cases: biochemical
[1] = HTP-analysis of supernatants pretreated with base (MUGal hydrolysis); conditions: challenge at pH 7.6; activity of the variant/activity of Rd2BB (SEQ ID NO: 10); yeast culture supernatant
How it was run: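 Supernatants from INVSc1 yeast expressing GLA variants (SD-Ura, 66-84 h, 30° C) were mixed with McIlvaine buffer pH 7.0-8.2 or 200 mM sodium bicarbonate pH 9.1-9.7 and held 1-18 h at 37° C. Residual activity was then measured on MUGal at pH 4.8/4.3, 37° C, 30-180 min, by fluorescence (Ex 355/Em 448 nm).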

[2] = HTP-analysis of yeast culture supernatants, no challenge (MUGal hydrolysis); conditions: activity of the variant/activity of Rd2BB (SEQ ID NO: 10), yeast culture supernatant
How it was run: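 GLA variants were expressed in INVSc1 yeast grown in SD-Ura broth with glucose at 30° C., and culture supernatants were collected after 66-84 h. Supernatant was mixed with McIlvaine buffer pH 4.8 and MUGal (2 mM stock) in 50 mM citrate, 200 mM KCl, pH 4.6, incubated at 37° C. for 30-180 minutes, then quenched with sodium carbonate.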

[3] = HTP-analysis of supernatants pretreated with bovine serum (MUGal hydrolysis); conditions: activity of the variant/activity of Rd2BB (SEQ ID NO: 10), yeast culture supernatant
How it was run: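 Yeast INVSc1 culture supernatants containing secreted GLA variants were mixed with bovine serum (20:80) and held 1 h at 37° C. Serum-treated samples then reacted with MUGal (4 mM stock) in citrate/McIlvaine buffer (pH 4.3/4.8) for 180 min at 37° C., were quenched with sodium carbonate, and read by fluorescence (Ex 355, Em 448 nm).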

[4] = HTP-analysis of supernatants pretreated with acid (MUGal hydrolysis); conditions: challenge at pH 4.2; activity of the variant/activity of Rd2BB (SEQ ID NO: 10); yeast culture supernatant
How it was run: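 MUGal hydrolysis was tracked by fluorescence (Ex 355 nm, Em 448 nm) after a 30-180 min reaction at 37° C. in pH 4.8 McIlvaine/citrate buffer, stopped with 1 M sodium carbonate. Beforehand, yeast (INVSc1) culture supernatants carrying GLA variants were held 1-3 h at 37° C. in acidic McIlvaine buffer, pH 3.3-4.3.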

Molecule	Relative Activity of GLA Variants After Challenge at pH 7.6 [1]	Relative Activity of GLA Variants After No Challenge (NC) [2]	Relative Activity of GLA Variants After Challenge with Serum [3]	Relative Activity of GLA Variants After Challenge at pH 4.2 [4]
B1	+++ (+++ = >2.5 relative activity over Rd2BB (SEQ ID NO: 10))	+++ (+++ = >2.5 relative activity over Rd2BB (SEQ ID NO: 10))	+++ (+++ = >2.5 relative activity over Rd2BB (SEQ ID NO: 10))	+++ (+++ = >2.5 relative activity over Rd2BB (SEQ ID NO: 10))
B2	+ (+ = 0.5 to 1.5 relative activity over Rd2BB (SEQ ID NO: 10))	+ (+ = 0.5 to 1.5 relative activity over Rd2BB (SEQ ID NO: 10))	+ (+ = 0.5 to 1.5 relative activity over Rd2BB (SEQ ID NO: 10))	+ (+ = 0.5 to 1.5 relative activity over Rd2BB (SEQ ID NO: 10))
B3	+ (+ = 0.5 to 1.5 relative activity over Rd2BB (SEQ ID NO: 10))	− (− = <0.5 relative activity over Rd2BB (SEQ ID NO: 10))	+ (+ = 0.5 to 1.5 relative activity over Rd2BB (SEQ ID NO: 10))	+ (+ = 0.5 to 1.5 relative activity over Rd2BB (SEQ ID NO: 10))
B4	+ (+ = 0.5 to 1.5 relative activity over Rd2BB (SEQ ID NO: 10))	+ (+ = 0.5 to 1.5 relative activity over Rd2BB (SEQ ID NO: 10))	+ (+ = 0.5 to 1.5 relative activity over Rd2BB (SEQ ID NO: 10))	+ (+ = 0.5 to 1.5 relative activity over Rd2BB (SEQ ID NO: 10))
B5	++ (++ = 1.5 to 2.5 relative activity over Rd2BB (SEQ ID NO: 10))	++ (++ = 1.5 to 2.5 relative activity over Rd2BB (SEQ ID NO: 10))	++ (++ = 1.5 to 2.5 relative activity over Rd2BB (SEQ ID NO: 10))	++ (++ = 1.5 to 2.5 relative activity over Rd2BB (SEQ ID NO: 10))
B6	+ (+ = 0.5 to 1.5 relative activity over Rd2BB (SEQ ID NO: 10))	+ (+ = 0.5 to 1.5 relative activity over Rd2BB (SEQ ID NO: 10))	+ (+ = 0.5 to 1.5 relative activity over Rd2BB (SEQ ID NO: 10))	+ (+ = 0.5 to 1.5 relative activity over Rd2BB (SEQ ID NO: 10))
B7	+ (+ = 0.5 to 1.5 relative activity over Rd2BB (SEQ ID NO: 10))	+ (+ = 0.5 to 1.5 relative activity over Rd2BB (SEQ ID NO: 10))	+ (+ = 0.5 to 1.5 relative activity over Rd2BB (SEQ ID NO: 10))	+ (+ = 0.5 to 1.5 relative activity over Rd2BB (SEQ ID NO: 10))
B8	+++ (+++ = >2.5 relative activity over Rd2BB (SEQ ID NO: 10))	+++ (+++ = >2.5 relative activity over Rd2BB (SEQ ID NO: 10))	+++ (+++ = >2.5 relative activity over Rd2BB (SEQ ID NO: 10))	+++ (+++ = >2.5 relative activity over Rd2BB (SEQ ID NO: 10))
B9	+ (+ = 0.5 to 1.5 relative activity over Rd2BB (SEQ ID NO: 10))	+ (+ = 0.5 to 1.5 relative activity over Rd2BB (SEQ ID NO: 10))	+ (+ = 0.5 to 1.5 relative activity over Rd2BB (SEQ ID NO: 10))	+ (+ = 0.5 to 1.5 relative activity over Rd2BB (SEQ ID NO: 10))
B10	+ (+ = 0.5 to 1.5 relative activity over Rd2BB (SEQ ID NO: 10))	− (− = <0.5 relative activity over Rd2BB (SEQ ID NO: 10))	+ (+ = 0.5 to 1.5 relative activity over Rd2BB (SEQ ID NO: 10))	+ (+ = 0.5 to 1.5 relative activity over Rd2BB (SEQ ID NO: 10))
B11	+ (+ = 0.5 to 1.5 relative activity over Rd2BB (SEQ ID NO: 10))	+ (+ = 0.5 to 1.5 relative activity over Rd2BB (SEQ ID NO: 10))	+ (+ = 0.5 to 1.5 relative activity over Rd2BB (SEQ ID NO: 10))	+ (+ = 0.5 to 1.5 relative activity over Rd2BB (SEQ ID NO: 10))
B12	+++ (+++ = >2.5 relative activity over Rd2BB (SEQ ID NO: 10))	++ (++ = 1.5 to 2.5 relative activity over Rd2BB (SEQ ID NO: 10))	++ (++ = 1.5 to 2.5 relative activity over Rd2BB (SEQ ID NO: 10))	++ (++ = 1.5 to 2.5 relative activity over Rd2BB (SEQ ID NO: 10))
